In article doi:10.64898/2025.12.12.693935:

Biological target: CD82-StrepII3 (human) (UniProt P27701)
Test: SEC

- stoichiometry N: 1
B1: CADM1-His6 (natural protein)
chain: QNLFTKDVTVIEGEVATISCQVNKSDDSVIQLLNPNRQTIYFRDFRPLKDSRFQLLNFSSSELKVSLTNVSISDEGRYFCQLYTDPPQESYTTITVLVPPRNLMIDIQKDTAVEGEEIEVNCTAMASKPATTIRWFKGNTELKGKSEVEEWSDMYTVTSQLMLKVHKEDDGVPVICQVEHPAVTGNLQTQRYLEVQYKPQVHIQMTYPLQGLTREGDALELTCEAIGKPQPVMVTWVRVDDEMPQHAVLSGPNLFINNLNKTDNGTYRCEASNIVGKAHSDYMLYVYDPPTTIPPPTTTTTTTTTTTTTILTIITDSRAGEEGSIRAVDHAVIGGVVAVVVFAMLCLLIILGRYFARHKGTYFTHEAKGADDAADADTAIINAEGGQNNSEEKKEYFI
